In paper PMC11417369, “DNA sequence and chromatin differentiate sequence-specific transcription factor binding in the human malaria parasite Plasmodium falciparum” one finds binding signal data, which are given here for 14 molecules.

For data set [1], the target named is T1, SIP2 D1 (Plasmodium falciparum, UniProt C6KSN9 177-235).
T1 sequence: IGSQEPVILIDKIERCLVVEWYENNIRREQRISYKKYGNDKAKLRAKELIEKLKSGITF
The data set is described as follows: gcPBM; about 25 ug protein; PBS, 1% milk, 0.2 mg/ml BSA, salmon testes DNA, 0.03% Triton X-100. The conditions noted are these: tags: N-terminal GST (pGEX-4T-1), kept; label: surface-attached array probe.

The target in data set [2] is T2, HDP1 homeodomain-like (Plasmodium falciparum, UniProt Q8IKH4 2990-3078).
T2 sequence: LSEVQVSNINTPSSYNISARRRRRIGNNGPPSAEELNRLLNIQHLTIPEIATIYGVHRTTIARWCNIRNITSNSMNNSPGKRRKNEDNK
The data set is described as above. The settings on record: tags: N-terminal GST (pGEX-4T-1), kept; chain copies: 2; label: surface-attached array probe.

B1: GTGCAC_negctrl_site61 (dsDNA)
DNA 1: TGTTTTTTGTTCTTTACAAAAAAAAAAAAAAAAAAA
DNA 2: TTTTTTTTTTTTTTTTTTTGTAAAGAACAAAAAACA
B1: the binding signal was 6.89 ln median PBM intensity, better of two orientations in data set [1] and 6.15 ln median PBM intensity, better of two orientations in data set [2].

B2: GTGCAC_site10202 (dsDNA)
DNA 1: AAAATGTAGAAATGGGTGCACACACATATATAATAT
DNA 2: ATATTATATATGTGTGTGCACCCATTTCTACATTTT
Take B2: the binding signal in data set [1] was 11.7 ln median PBM intensity, better of two orientations; in data set [2] it was 9.58 ln median PBM intensity, better of two orientations.

B3: GTGCAC_site10094 (dsDNA)
DNA 1: TATTAACAAATTTATGTGCACTGAGGACAAATATAT
DNA 2: ATATATTTGTCCTCAGTGCACATAAATTTGTTAATA
On to B3, for which the binding signal in data set [1] is 10.5 ln median PBM intensity, better of two orientations; in data set [2], 10.3 ln median PBM intensity, better of two orientations.

B4: GTGCAC_negctrl_site631 (dsDNA)
DNA 1: AGAAGGTAAATAATTTACCCATATATATAAATATAT
DNA 2: ATATATTTATATATATGGGTAAATTATTTACCTTCT
Consider B4, for which the binding signal in data set [1] was 6.91 ln median PBM intensity, better of two orientations; in data set [2] it was 6.21 ln median PBM intensity, better of two orientations.

B5: GTGCAC_site10095 (dsDNA)
DNA 1: CTATATATAACCCATGTGCACTTTTTATGTACAATA
DNA 2: TATTGTACATAAAAAGTGCACATGGGTTATATATAG
Regarding B5, the binding signal in data set [1] is 10.2 ln median PBM intensity, better of two orientations; in data set [2] it was 10.1 ln median PBM intensity, better of two orientations.

B6: GTGCAC_negctrl_site23 (dsDNA)
DNA 1: TCCTATATATAAATATTAATATATATGTATTGGTAT
DNA 2: ATACCAATACATATATATTAATATTTATATATAGGA
As for B6, the binding signal in data set [1] was 6.91 ln median PBM intensity, better of two orientations; in data set [2], 6.35 ln median PBM intensity, better of two orientations.

B7: GTGCAC_site9436 (dsDNA)
DNA 1: AACGAGCAAGACGGGGTGCACACAAACTAATATGCC
DNA 2: GGCATATTAGTTTGTGTGCACCCCGTCTTGCTCGTT
Take B7: the binding signal is 11.8 ln median PBM intensity, better of two orientations in data set [1] and 9.89 ln median PBM intensity, better of two orientations in data set [2].

B8: GTGCAC_site9474 (dsDNA)
DNA 1: GCCCCCAAATTATGTGTGCACTTTATATTCCTGAGA
DNA 2: TCTCAGGAATATAAAGTGCACACATAATTTGGGGGC
As to B8, the binding signal in data set [1] was 11.2 ln median PBM intensity, better of two orientations; in data set [2], 9.62 ln median PBM intensity, better of two orientations.

B9: GTGCAC_site10490 (dsDNA)
DNA 1: TTTATATTTATTGTTGTGCACAGAACCATATTCGTT
DNA 2: AACGAATATGGTTCTGTGCACAACAATAAATATAAA
With B9, the binding signal in data set [1] was 10.4 ln median PBM intensity, better of two orientations; in data set [2] it was 11.1 ln median PBM intensity, better of two orientations.

B10: GTGCAC_site9426 (dsDNA)
DNA 1: ACGTGTATTTATTTAGTGCACTTTATATTTTTTCTT
DNA 2: AAGAAAAAATATAAAGTGCACTAAATAAATACACGT
Turning to B10, the binding signal in data set [1] was 10.7 ln median PBM intensity, better of two orientations; in data set [2], 11.3 ln median PBM intensity, better of two orientations.

B11: GTGCAC_site10218 (dsDNA)
DNA 1: GATATATATACATGTGTGCACCATGCAACTTGTTTT
DNA 2: AAAACAAGTTGCATGGTGCACACATGTATATATATC
B11: the binding signal was 11.1 ln median PBM intensity, better of two orientations in data set [1] and 9.57 ln median PBM intensity, better of two orientations in data set [2].

B12: GTGCAC_site9736 (dsDNA)
DNA 1: ATATTTTATGTGTTGGTGCACATCTTTATTTAAACT
DNA 2: AGTTTAAATAAAGATGTGCACCAACACATAAAATAT
B12: the binding signal in data set [1] is 10.9 ln median PBM intensity, better of two orientations; in data set [2] it was 9.88 ln median PBM intensity, better of two orientations.

B13: GTGCAC_negctrl_site163 (dsDNA)
DNA 1: ATTTTTTTATAAAATTTTTATATATTATATAAATAT
DNA 2: ATATTTATATAATATATAAAAATTTTATAAAAAAAT
On to B13, for which the binding signal in data set [1] was 6.9 ln median PBM intensity, better of two orientations; in data set [2] it was 6.2 ln median PBM intensity, better of two orientations.

B14: GTGCAC_site9533 (dsDNA)
DNA 1: TTTTCTATTTAATTGGTGCACTGATATATACACATA
DNA 2: TATGTGTATATATCAGTGCACCAATTAAATAGAAAA
As to B14, the binding signal is 11.6 ln median PBM intensity, better of two orientations in data set [1] and 10.5 ln median PBM intensity, better of two orientations in data set [2].
